Data from US20090099029.

T1: Bovine, dephosphorylated, Myelin Basic Protein (MBP), P02687
T1 chain: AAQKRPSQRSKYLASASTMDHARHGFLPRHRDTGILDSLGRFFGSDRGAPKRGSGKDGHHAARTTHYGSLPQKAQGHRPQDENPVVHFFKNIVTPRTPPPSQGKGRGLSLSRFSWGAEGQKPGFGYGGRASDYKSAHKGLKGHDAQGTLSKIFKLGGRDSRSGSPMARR

B1: PRKCI (protein)
chain: MPTQRDSSTMSHTVAGGGSGDHSHQVRVKAYYRGDIMITHFEPSISFEGLCNEVRDMCSFDNEQLFTMKWIDEEGDPCTVSSQLELEEAFRLYELNKDSELLIHVFPCVPERPGMPCPGEDKSIYRRGARRWRKLYCANGHTFQAKRFNRRAHCAICTDRIWGLGRQGYKCINCKLLVHKKCHKLVTIECGRHSLPQEPVMPMDQSSMHSDHAQTVIPYNPSSHESLDQVGEEKEAMNTRESGKASSSLGLQDFDLLRVIGRGSYAKVLLVRLKKTDRIYAMKVVKKELVNDDEDIDWVQTEKHVFEQASNHPFLVGLHSCFQTESRLFFVIEYVNGGDLMFHMQRQRKLPEEHARFYSAEISLALNYLHERGIIYRDLKLDNVLLDSEGHIKLTDYGMCKEGLRPGDTTSTFCGTPNYIAPEILRGEDYGFSVDWWALGVLMFEMMAGRSPFDIVGSSDNPDQNTEDYLFQVILEKQIRIPRSLSVKAASVLKSFLNKDPKERLGCHPQTGFADIQGHPFFRNVDWDMMEQKQVVPPFKPNISGEFGLDNFDSQFTNEPVQLTPDDDDIVRKIDQSEFEGFEYINPLLMSAEECV
B2: PAK6 (protein)
chain: MFRKKKKKRPEISAPQNFQHRVHTSFDPKEGKFVGLPPQWQNILDTLRRPKPVVDPSRITRVQLQPMKTVVRGSAMPVDGYISGLLNDIQKLSVISSNTLRGRSPTSRRRAQSLGLLGDEHWATDPDMYLQSPQSERTDPHGLYLSCNGGTPAGHKQMPWPEPQSPRVLPNGLAAKAQSLGPAEFQGASQRCLQLGACLQSSPPGASPPTGTNRHGMKAAKHGSEEARPQSCLVGSATGRPGGEGSPSPKTRESSLKRRLFRSMFLSTAATAPPSSSKPGPPPQSKPNSSFRPPQKDNPPSLVAKAQSLPSDQPVGTFSPLTTSDTSSPQKSLRTAPATGQLPGRSSPAGSPRTWHAQISTSNLYLPQDPTVAKGALAGEDTGVVTHEQFKAALRMVVDQGDPRLLLDSYVKIGEGSTGIVCLAREKHSGRQVAVKMMDLRKQQRRELLFNEVVIMRDYQHFNVVEMYKSYLVGEELWVLMEFLQGGALTDIVSQVRLNEEQIATVCEAVLQALAYLHAQGVIHRDIKSDSILLTLDGRVKLSDFGFCAQISKDVPKRKSLVGTPYWMAPEVISRSLYATEVDIWSLGIMVIEMVDGEPPYFSDSPVQAMKRLRDSPPPKLKNSHKVSPVLRDFLERMLVRDPQERATAQELLDHPFLLQTGLPECLVPLIQLYRKQTSTC
B3: PHKG2 (protein)
chain: MTLDVGPEDELPDWAAAKEFYQKYDPKDVIGRGVSSVVRRCVHRATGHEFAVKIMEVTAERLSPEQLEEVREATRRETHILRQVAGHPHIITLIDSYESSSFMFLVFDLMRKGELFDYLTEKVALSEKETRSIMRSLLEAVSFLHANNIVHRDLKPENILLDDNMQIRLSDFGFSCHLEPGEKLRELCGTPGYLAPEILKCSMDETHPGYGKEVDLWACGVILFTLLAGSPPFWHRRQILMLRMIMEGQYQFSSPEWDDRSSTVKDLISRLLQVDPEARLTAEQALQHPFFERCEGSQPWNLTPRQRFRVAVWTVLAAGRVALSTHRVRPLTKNALLRDPYALRSVRHLIDNCAFRLYGHWVKKGEQQNRAALFQHRPPGPFPIMGPEEEGDSAAITEDEAVLVLG
B4: EPHB1 (protein)
chain: SRKRAYSKEAVYSDKLQHYSTGRGSPGMKIYIDPFTYEDPNEAVREFAKEIDVSFVKIEEVIGAGEFGEVYKGRLKLPGKREIYVAIKTLKAGYSEKQRRDFLSEASIMGQFDHPNIIRLEGVVTKSRPVMIITEFMENGALDSFLRQNDGQFTVIQLVGMLRGIAAGMKYLAEMNYVHRDLAARNILVNSNLVCKVSDFGLSRYLQDDTSDPTYTSSLGGKIPVRWTAPEAIAYRKFTSASDVWSYGIVMWEVMSFGERPYWDMSNQDVINAIEQDYRLPPPMDCPAALHQLMLDCWQKDRNSRPRFAEIVNTLDKMIRNPASLKTVATITAVPSQPLLDRSIPDFTAFTTVDDWLSAIKMVQYRDSFLTAGFTSLQLVTQMTSEDLLRIGITLAGHQKKILNSIHSMRVQISQSPTAMA
B5: PAK1 (protein)
chain: MSNNGLDIQDKPPAPPMRNTSTMIGAGSKDAGTLNHGSKPLPPNPEEKKKKDRFYRSILPGDKTNKKKEKERPEISLPSDFEHTIHVGFDAVTGEFTGMPEQWARLLQTSNITKSEQKKNPQAVLDVLEFYNSKKTSNSQKYMSFTDKSAEDYNSSNALNVKAVSETPAVPPVSEDEDDDDDDATPPPVIAPRPEHTKSVYTRSVIEPLPVTPTRDVATSPISPTENNTTPPDALTRNTEKQKKKPKMSDEEILEKLRSIVSVGDPKKKYTRFEKIGQGASGTVYTAMDVATGQEVAIKQMNLQQQPKKELIINEILVMRENKNPNIVNYLDSYLVGDELWVVMEYLAGGSLTDVVTETCMDEGQIAAVCRECLQALEFLHSNQVIHRDIKSDNILLGMDGSVKLTDFGFCAQITPEQSKRSTMVGTPYWMAPEVVTRKAYGPKVDIWSLGIMAIEMIEGEPPYLNENPLRALYLIATNGTPELQNPEKLSAIFRDFLNRCLEMDVEKRGSAKELLQHQFLKIAKPLSSLTPLIAAAKEATKNNH
B6: NEK3 (protein)
chain: MDDYMVLRMIGEGSFGRALLVQHESSNQMFAMKEIRLPKSFSNTQNSRKEAVLLAKMKHPNIVAFKESFEAEGHLYIVMEYCDGGDLMQKIKQQKGKLFPEDMILNWFTQMCLGVNHIHKKRVLHRDIKSKNIFLTQNGKVKLGDFGSARLLSNPMAFACTYVGTPYYVPPEIWENLPYNNKSDIWSLGCILYELCTLKHPFQANSWKNLILKVCQGCISPLPSHYSYELQFLVKQMFKRNPSHRPSATTLLSRGIVARLVQKCLPPEIIMEYGEEVLEEIKNSKHNTPRKKTNPSRIRIALGNEASTVQEEEQDRKGSHTDLESINENLVESALRRVNREEKGNKSVHLRKASSPNLHRRQWEKNVPNTALTALENASILTSSLTAEDDRGGSVIKYSKNTTRKQWLKETPDTLLNILKNADLSLAFQTYTIYRPGSEGFLKGPLSEETEASDSVDGGHDSVILDPERLEPGLDEEDTDFEEEDDNPDWVSELKKRAGWQGLCDR
B7: PAK3 (protein)
chain: MSDGLDNEEKPPAPPLRMNSNNRDSSALNHSSKPLPMAPEEKNKKARLRSIFPGGGDKTNKKKEKERPEISLPSDFEHTIHVGFDAVTGEFTGIPEQWARLLQTSNITKLEQKKNPQAVLDVLKFYDSKETVNNQKYMSFTSGDKSAHGYIAAHPSSTKTASEPPLAPPVSEEEDEEEEEEEDENEPPPVIAPRPEHTKSIYTRSVVESIASPAVPNKEVTPPSAENANSSTLYRNTDRQRKKSKMTDEEILEKLRSIVSVGDPKKKYTRFEKIGQGASGTVYTALDIATGQEVAIKQMNLQQQPKKELIINEILVMRENKNPNIVNYLDSYLVGDELWVVMEYLAGGSLTDVVTETCMDEGQIAAVCRECLQALDFLHSNQVIHRDIKSDNILLGMDGSVKLTDFGFCAQITPEQSKRSTMVGTPYWMAPEVVTRKAYGPKVDIWSLGIMAIEMVEGEPPYLNENPLRALYLIATNGTPELQNPERLSAVFRDFLNRCLEMDVDRRGSAKELLQHPFLKLAKPLSSLTPLIIAAKEAIKNSSR
B8: EPHB2 (protein)
chain: CNRRGFERADSEYTDKLQHYTSGHMTPGMKIYIDPFTYEDPNEAVREFAKEIDISCVKIEQVIGAGEFGEVCSGHLKLPGKREIFVAIKTLKSGYTEKQRRDFLSEASIMGQFDHPNVIHLEGVVTKSTPVMIITEFMENGSLDSFLRQNDGQFTVIQLVGMLRGIAAGMKYLADMNYVHRDLAARNILVNSNLVCKVSDFGLSRFLEDDTSDPTYTSALGGKIPIRWTAPEAIQYRKFTSASDVWSYGIVMWEVMSYGERPYWDMTNQDVINAIEQDYRLPPPMDCPSALHQLMLDCWQKDRNHRPKFGQIVNTLDKMIRNPNSLKAMAPLSSGINLPLLDRTIPDYTSFNTVDEWLEAIKMGQYKESFANAGFTSFDVVSQMMMEDILRVGVTLAGHQKKILNSIQVMRAQMNQIQSVEV
B9: NEK2 (protein)
chain: MPSRAEDYEVLYTIGTGSYGRCQKIRRKSDGKILVWKELDYGSMTEAEKQMLVSEVNLLRELKHPNIVRYYDRIIDRTNTTLYIVMEYCEGGDLASVITKGTKERQYLDEEFVLRVMTQLTLALKECHRRSDGGHTVLHRDLKPANVFLDGKQNVKLGDFGLARILNHDTSFAKTFVGTPYYMSPEQMNRMSYNEKSDIWSLGCLLYELCALMPPFTAFSQKELAGKIREGKFRRIPYRYSDELNEIITRMLNLKDYHRPSVEEILENPLIADLVADEQRRNLERRGRQLGEPEKSQDSSPVLSELKLKEIQLQERERALKAREERLEQKEQELCVRERLAEDKLARAENLLKNYSLLKERKFLSLASNPELLNLPSSVIKKKVHFSGESKENIMRSENSESQLTSKSKCKDLKKRLHAAQLRAQALSDIEKNYQLKSRQILGMR
B10: PLK3 (protein)
chain: SGRTYLKGRLLGKGGFARCYEATDTETGSAYAVKVIPQSRVAKPHQREKILNEIELHRDLQHRHIVRFSHHFEDADNIYIFLELCSRKSLAHIWKARHTLLEPEVRYYLRQILSGLKYLHQRGILHRDLKLGNFFITENMELKVGDFGLAARLEPPEQRKKTICGTPNYVAPEVLLRQGHGPEADVWSLGCVMYTLLCGSPPFETADLKETYRCIKQVHYTLPASLSLPARQLLAAILRASPRDRPSIDQILRHDFFTKGYTPDRLPISSCVTVPDLTPPNPA
B11: PRKCE (protein)
chain: MVVFNGLLKIKICEAVSLKPTAWSLRHAVGPRPQTFLLDPYIALNVDDSRIGQTATKQKTNSPAWHDEFVTDVCNGRKIELAVFHDAPIGYDDFVANCTIQFEELLQNGSRHFEDWIDLEPEGRVYVIIDLSGSSGEAPKDNEERVFRERMRPRKRQGAVRRRVHQVNGHKFMATYLRQPTYCSHCRDFIWGVIGKQGYQCQVCTCVVHKRCHELIITKCAGLKKQETPDQVGSQRFSVNMPHKFGIHNYKVPTFCDHCGSLLWGLLRQGLQCKVCKMNVHRRCETNVAPNCGVDARGIAKVLADLGVTPDKITNSGQRRKKLIAGAESPQPASGSSPSEEDRSKSAPTSPCDQEIKELENNIRKALSFDNRGEEHRAASSPDGQLMSPGENGEVRQGQAKRLGLDEFNFIKVLGKGSFGKVMLAELKGKDEVYAVKVLKKDVILQDDDVDCTMTEKRILALARKHPYLTQLYCCFQTKDRLFFVMEYVNGGDLMFQIQRSRKFDEPRSRFYAAEVTSALMFLHQHGVIYRDLKLDNILLDAEGHCKLADFGMCKEGILNGVTTTTFCGTPDYIAPEILQELEYGPSVDWWALGVLMYEMMAGQPPFEADNEDDLFESILHDDVLYPVWLSKEAVSILKAFMTKNPHKRLGCVASQNGEDAIKQHPFFKEIDWVLLEQKKIKPPFKPRIKTKRDVNNFDQDFTREEPVLTLVDEAIVKQINQEEFKGFSYFGEDLMP

Target: T1, Bovine, dephosphorylated, Myelin Basic …

Protein | MBP Kinase Activity
B1 | Strong
B2 | Negative
B3 | Negative
B4 | Strong
B5 | Negative
B6 | Negative
B7 | Weak
B8 | Strong
B9 | Strong
B10 | Negative
B11 | Strong
